IntAct's records for PubMed 25910212

B1: Prelamin-A/C (Homo sapiens), P02545-2 (parent)
chain: METPSQRRATRSGAQASSTPLSPTRITRLQEKEDLQELNDRLAVYIDRVRSLETENAGLRLRITESEEVVSREVSGIKAAYEAELGDARKTLDSVAKERARLQLELSKVREEFKELKARNTKKEGDLIAAQARLKDLEALLNSKEAALSTALSEKRTLEGELHDLRGQVAKLEAALGEAKKQLQDEMLRRVDAENRLQTMKEELDFQKNIYSEELRETKRRHETRLVEIDNGKQREFESRLADALQELRAQHEDQVEQYKKELEKTYSAKLDNARQSAERNSNLVGAAHEELQQSRIRIDSLSAQLSQLQKQLAAKEAKLRDLEDSLARERDTSRRLLAEKEREMAEMRARMQQQLDEYQELLDIKLALDMEIHAYRKLLEGEEERLRLSPSPTSQRSRGRASSHSSQTQGGGSVTKKRKLESTESRSSFSQHARTSGRVAVEEVDEEGKFVRLRNKSNEDQSMGNWQIKRQNGDDPLLTYRFPPKFTLKAGQVVTIWAAGAGATHSPPTDLVWKAQNTWGCGNSLRTALINSTGEEVAMRKLVRSVTVVEDDEDEDGDDLLHHHHVSGSRR
B2: Sulfotransferase 2B1 (Homo sapiens), O00204 (parent)
chain: MDGPAEPQIPGLWDTYEDDISEISQKLPGEYFRYKGVPFPVGLYSLESISLAENTQDVRDDDIFIITYPKSGTTWMIEIICLILKEGDPSWIRSVPIWERAPWCETIVGAFSLPDQYSPRLMSSHLPIQIFTKAFFSSKAKVIYMGRNPRDVVVSLYHYSKIAGQLKDPGTPDQFLRDFLKGEVQFGSWFDHIKGWLRMKGKDNFLFITYEELQQDLQGSVERICGFLGRPLGKEALGSVVAHSTFSAMKANTMSNYTLLPPSLLDHRRGAFLRKGVCGDWKNHFTVAQSEAFDRAYRKQMRGMPTFPWDEDPEEDGSPDPEPSPEPEPKPSLEPNTSLEREPRPNSSPSPSPGQASETPHPRPS
partner: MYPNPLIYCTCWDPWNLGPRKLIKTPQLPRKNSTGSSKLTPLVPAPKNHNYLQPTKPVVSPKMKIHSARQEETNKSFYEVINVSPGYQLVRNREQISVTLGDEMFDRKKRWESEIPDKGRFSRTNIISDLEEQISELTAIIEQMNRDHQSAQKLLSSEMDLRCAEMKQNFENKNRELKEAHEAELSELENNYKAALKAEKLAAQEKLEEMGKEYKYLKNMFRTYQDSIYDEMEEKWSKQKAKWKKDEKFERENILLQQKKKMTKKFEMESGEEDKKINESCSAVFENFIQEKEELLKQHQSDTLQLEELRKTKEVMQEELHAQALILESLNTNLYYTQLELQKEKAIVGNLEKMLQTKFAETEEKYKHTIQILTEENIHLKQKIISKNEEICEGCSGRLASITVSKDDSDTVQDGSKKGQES
B3: DNA mismatch repair protein Mlh1 (Homo sapiens), P40692 (parent)
chain: MSFVAGVIRRLDETVVNRIAAGEVIQRPANAIKEMIENCLDAKSTSIQVIVKEGGLKLIQIQDNGTGIRKEDLDIVCERFTTSKLQSFEDLASISTYGFRGEALASISHVAHVTITTKTADGKCAYRASYSDGKLKAPPKPCAGNQGTQITVEDLFYNIATRRKALKNPSEEYGKILEVVGRYSVHNAGISFSVKKQGETVADVRTLPNASTVDNIRSIFGNAVSRELIEIGCEDKTLAFKMNGYISNANYSVKKCIFLLFINHRLVESTSLRKAIETVYAAYLPKNTHPFLYLSLEISPQNVDVNVHPTKHEVHFLHEESILERVQQHIESKLLGSNSSRMYFTQTLLPGLAGPSGEMVKSTTSLTSSSTSGSSDKVYAHQMVRTDSREQKLDAFLQPLSKPLSSQPQAIVTEDKTDISSGRARQQDEEMLELPAPAEVAAKNQSLEGDTTKGTSEMSEKRGPTSSNPRKRHREDSDVEMVEDDSRKEMTAACTPRRRIINLTSVLSLQEEINEQGHEVLREMLHNHSFVGCVNPQWALAQHQTKLYLLNTTKLSEELFYQILIYDFANFGVLRLSEPAPLFDLAMLALDSPESGWTEEDGPKEGLAEYIVEFLKKKAEMLADYFSLEIDEEGNLIGLPLLIDNYVPPLEGLPIFILRLATEVNWDEEKECFESLSKECAMFYSIRKQYISEESTLSGQQSEVPGSIPNSWKWTVEHIVYKALRSHILPPKHFTEDGNILQLANLPDLYKVFERC
partner: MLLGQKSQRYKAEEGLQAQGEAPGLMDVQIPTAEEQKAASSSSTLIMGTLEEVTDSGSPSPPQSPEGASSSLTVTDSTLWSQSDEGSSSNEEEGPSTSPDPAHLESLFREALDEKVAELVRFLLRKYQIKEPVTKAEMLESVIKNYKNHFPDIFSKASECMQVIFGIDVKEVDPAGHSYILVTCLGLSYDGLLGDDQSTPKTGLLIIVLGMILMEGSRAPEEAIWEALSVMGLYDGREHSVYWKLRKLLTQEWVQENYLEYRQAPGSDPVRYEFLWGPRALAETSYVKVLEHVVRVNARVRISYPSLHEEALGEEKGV
B4: Cullin-4B (Homo sapiens), Q13620 (parent)
chain: MMSQSSGSGDGNDDEATTSKDGGFSSPSPSAAAAAQEVRSATDGNTSTTPPTSAKKRKLNSSSSSSSNSSNEREDFDSTSSSSSTPPLQPRDSASPSTSSFCLGVSVAASSHVPIQKKLRFEDTLEFVGFDAKMAEESSSSSSSSSPTAATSQQQQLKNKSILISSVASVHHANGLAKSSTTVSSFANSKPGSAKKLVIKNFKDKPKLPENYTDETWQKLKEAVEAIQNSTSIKYNLEELYQAVENLCSYKISANLYKQLRQICEDHIKAQIHQFREDSLDSVLFLKKIDRCWQNHCRQMIMIRSIFLFLDRTYVLQNSMLPSIWDMGLELFRAHIISDQKVQNKTIDGILLLIERERNGEAIDRSLLRSLLSMLSDLQIYQDSFEQRFLEETNRLYAAEGQKLMQEREVPEYLHHVNKRLEEEADRLITYLDQTTQKSLIATVEKQLLGEHLTAILQKGLNNLLDENRIQDLSLLYQLFSRVRGGVQVLLQQWIEYIKAFGSTIVINPEKDKTMVQELLDFKDKVDHIIDICFLKNEKFINAMKEAFETFINKRPNKPAELIAKYVDSKLRAGNKEATDEELEKMLDKIMIIFRFIYGKDVFEAFYKKDLAKRLLVGKSASVDAEKSMLSKLKHECGAAFTSKLEGMFKDMELSKDIMIQFKQYMQNQNVPGNIELTVNILTMGYWPTYVPMEVHLPPEMVKLQEIFKTFYLGKHSGRKLQWQSTLGHCVLKAEFKEGKKELQVSLFQTLVLLMFNEGEEFSLEEIKQATGIEDGELRRTLQSLACGKARVLAKNPKGKDIEDGDKFICNDDFKHKLFRIKINQIQMKETVEEQASTTERVFQDRQYQIDAAIVRIMKMRKTLSHNLLVSEVYNQLKFPVKPADLKKRIESLIDRDYMERDKENPNQYNYIA
partner: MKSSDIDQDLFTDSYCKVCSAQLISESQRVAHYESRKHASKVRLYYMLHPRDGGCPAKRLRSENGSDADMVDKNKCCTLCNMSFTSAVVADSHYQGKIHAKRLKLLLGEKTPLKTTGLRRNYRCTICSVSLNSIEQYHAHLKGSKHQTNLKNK
B5: Phospholamban (Homo sapiens), P26678 (parent)
chain: MEKVQYLTRSAIRRASTIEMPQQARQKLQNLFINFCLILICLLLICIIVMLL
partner: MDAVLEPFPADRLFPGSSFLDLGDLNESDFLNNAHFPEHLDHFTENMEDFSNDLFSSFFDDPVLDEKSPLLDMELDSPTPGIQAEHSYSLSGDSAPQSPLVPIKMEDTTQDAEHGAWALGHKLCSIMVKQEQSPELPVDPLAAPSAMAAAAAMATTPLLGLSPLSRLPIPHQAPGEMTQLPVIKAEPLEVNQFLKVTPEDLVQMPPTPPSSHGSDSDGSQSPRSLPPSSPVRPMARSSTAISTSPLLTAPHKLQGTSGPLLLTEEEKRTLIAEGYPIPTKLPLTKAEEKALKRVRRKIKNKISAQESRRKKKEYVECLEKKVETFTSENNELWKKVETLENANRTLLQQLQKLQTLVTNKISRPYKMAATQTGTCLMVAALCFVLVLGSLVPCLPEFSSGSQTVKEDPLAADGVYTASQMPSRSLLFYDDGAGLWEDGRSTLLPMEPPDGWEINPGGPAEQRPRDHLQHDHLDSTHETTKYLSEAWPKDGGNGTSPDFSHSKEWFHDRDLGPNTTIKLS
B6: U4/U6 small nuclear ribonucleoprotein Prp31 (Homo sapiens), Q8WWY3 (parent)
chain: MSLADELLADLEEAAEEEEGGSYGEEEEEPAIEDVQEETQLDLSGDSVKTIAKLWDSKMFAEIMMKIEEYISKQAKASEVMGPVEAAPEYRVIVDANNLTVEIENELNIIHKFIRDKYSKRFPELESLVPNALDYIRTVKELGNSLDKCKNNENLQQILTNATIMVVSVTASTTQGQQLSEEELERLEEACDMALELNASKHRIYEYVESRMSFIAPNLSIIIGASTAAKIMGVAGGLTNLSKMPACNIMLLGAQRKTLSGFSSTSVLPHTGYIYHSDIVQSLPPDLRRKAARLVAAKCTLAARVDSFHESTEGKVGYELKDEIERKFDKWQEPPPVKQVKPLPAPLDGQRKKRGGRRYRKMKERLGLTEIRKQANRMSFGEIEEDAYQEDLGFSLGHLGKSGSGRVRQTQVNEATKARISKTLQRTLQKQSVVYGGKSTIRDRSSGTASSVAFTPLQGLEIVNPQAAEKKVAEANQKYFSSMAEFLKVKGEKSGLMST
partner: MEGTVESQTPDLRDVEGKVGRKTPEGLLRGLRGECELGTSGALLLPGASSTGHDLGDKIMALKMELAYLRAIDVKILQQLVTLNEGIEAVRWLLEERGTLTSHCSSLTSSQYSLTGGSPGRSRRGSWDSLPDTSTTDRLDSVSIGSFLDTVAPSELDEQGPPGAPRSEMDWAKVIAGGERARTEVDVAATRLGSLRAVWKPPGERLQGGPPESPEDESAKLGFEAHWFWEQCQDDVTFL

Variants of: B1
Details: with syce1_human SYCE1, Q8N0S2
syce1_human SYCE1, Q8N0S2, sequence (Q8N0S2 whole entry): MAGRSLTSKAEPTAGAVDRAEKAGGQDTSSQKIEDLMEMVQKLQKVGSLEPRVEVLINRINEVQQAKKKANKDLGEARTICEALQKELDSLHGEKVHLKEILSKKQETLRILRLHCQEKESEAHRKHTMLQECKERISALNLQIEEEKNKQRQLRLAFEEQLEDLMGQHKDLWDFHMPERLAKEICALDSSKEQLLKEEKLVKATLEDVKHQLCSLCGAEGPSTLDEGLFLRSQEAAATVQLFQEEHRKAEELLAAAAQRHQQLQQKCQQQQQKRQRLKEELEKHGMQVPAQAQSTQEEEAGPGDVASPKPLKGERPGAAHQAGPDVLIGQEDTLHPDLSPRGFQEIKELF

| effect of a mutation on the interaction | Variant |
| --- | --- |
| disrupting interaction strength | R60G |

Variants of: B2
Details: with FLACC1, Q96Q35-2

| effect of a mutation on the interaction | Variant |
| --- | --- |
| with no effect | D191N |
| with no effect | R230H |

Variants of: B3
Details: with maga8_human MAGEA8, P43361

| effect of a mutation on the interaction | Variant |
| --- | --- |
| with no effect | G244D |
| disrupting interaction strength | S44F |
| with no effect | R472I |

Variants of: B4
Details: with ZMAT4, Q9H898-2

| effect of a mutation on the interaction | Variant |
| --- | --- |
| with no effect | T213I |
| with no effect | V745A |

Variants of: B5
Details: with cr3l1_human CREB3L1, Q96BA8

| effect of a mutation on the interaction | Variant |
| --- | --- |
| with no effect | R9C |

Variants of: B6
Details: with lura1_human LURAP1, Q96LR2

| effect of a mutation on the interaction | Variant |
| --- | --- |
| with no effect | L107V |
